Reference: patent US20140087995A1 (published 2014)
Numbered stars: 1 amine (or outer) side, 2 acyl side, 3 side chain; on linkers, the order of the positions; unused ones are H or OH. Bridge positions count the residues as written; N and C are the ends. Side chains are listed from the residue outwards. Ends that are not written are not given here. * marks the point of attachment. C20 diacid = O=C(O)CCCCCCCCCCCCCCCCCCC(=O)*; γGlu = O=C(O)[C@H](CCC(=O)[*:2])N[*:1]

T1: human calcitonin receptor (human, UniProt P30988 25-474)
T1 construct: whole, on cells; Assay used cell membranes of the transfected BHK cells; also called hCTR; hCT
T1 sequence (looked up): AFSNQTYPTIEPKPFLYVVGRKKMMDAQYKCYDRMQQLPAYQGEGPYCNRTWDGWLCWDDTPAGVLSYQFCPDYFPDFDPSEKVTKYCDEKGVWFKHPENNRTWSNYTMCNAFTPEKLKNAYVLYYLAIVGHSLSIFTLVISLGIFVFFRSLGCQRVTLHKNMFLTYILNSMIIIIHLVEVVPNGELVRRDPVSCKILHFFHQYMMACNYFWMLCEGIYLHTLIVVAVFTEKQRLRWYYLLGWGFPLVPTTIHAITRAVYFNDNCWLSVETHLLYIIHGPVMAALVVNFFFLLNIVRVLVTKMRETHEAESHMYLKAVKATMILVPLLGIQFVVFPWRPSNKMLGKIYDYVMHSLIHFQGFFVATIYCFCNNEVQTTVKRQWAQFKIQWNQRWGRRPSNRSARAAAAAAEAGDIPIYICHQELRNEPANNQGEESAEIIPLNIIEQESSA


Key:
[1] = target: T1, human calcitonin receptor; test: SPA radioligand competition (125I-calcitonin), membranes of BHK cells with human calcitonin receptor
How it was run: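 BHK hCTR membranes 35 ng/μL + SPA beads 0.05 mg/well; buffer 50 mM Hepes pH 7.4, 1 mM CaCl2, 5 mM MgCl₂, 0.1% OA, 0.02% Tween20. 120 min, 25° C., shaking. Scintillation count; IC50 by one-site binding competition.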

[2] = target: T1, human calcitonin receptor; test: ratio IC50 hCTR / IC50 hAmylin-R of the two SPA competition assays; reference: human amylin receptor
How it was run: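 IC₅₀ values were derived by one-site competition analysis of SPA counts. Cell membranes (35 ng/μL) with SPA beads were incubated with test compounds for 120 min at 25° C in Hepes buffer, pH 7.4, containing CaCl2, MgCl₂, OA and Tween20.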

Row | Binder | IC50 [1] [nM] | Ratio hCT/hAmylin binding [2]
1 | K([γGlu-C20 diacid])CNTATCATQRLANFLRHSSPNFGAIPSSTNVGSETY-NH2 (disulfide 2-7; N-terminus assumed; SMILES CC[C@H](C)[C@H](NC(=O)[C@H](C)NC(=O)CNC(=O)[C@H](Cc1ccccc1)NC(=O)[C@H](CC(N)=O)NC(=O)[C@@H]1CCCN1C(=O)[C@H](CO)NC(=O)[C@H](CO)NC(=O)[C@H](Cc1c[nH]cn1)NC(=O)[C@H](CCCNC(=N)N)NC(=O)[C@H](CC(C)C)NC(=O)[C@H](Cc1ccccc1)NC(=O)[C@H](CC(N)=O)NC(=O)[C@H](C)NC(=O)[C@H](CC(C)C)NC(=O)[C@H](CCCNC(=N)N)NC(=O)[C@H](CCC(N)=O)NC(=O)[C@@H](NC(=O)[C@H](C)NC(=O)[C@@H]1CSSC[C@H](NC(=O)[C@@H](N)CCCCNC(=O)CC[C@H](NC(=O)CCCCCCCCCCCCCCCCCCC(=O)O)C(=O)O)C(=O)N[C@@H](CC(N)=O)C(=O)N[C@@H]([C@@H](C)O)C(=O)N[C@@H](C)C(=O)N[C@@H]([C@@H](C)O)C(=O)N1)[C@@H](C)O)C(=O)N1CCC[C@H]1C(=O)N[C@@H](CO)C(=O)N[C@@H](CO)C(=O)N[C@H](C(=O)N[C@@H](CC(N)=O)C(=O)N[C@H](C(=O)NCC(=O)N[C@@H](CO)C(=O)N[C@@H](CCC(=O)O)C(=O)N[C@H](C(=O)N[C@@H](Cc1ccc(O)cc1)C(N)=O)[C@@H](C)O)C(C)C)[C@@H](C)O, Synthetic analogue; also called compound 27) [N^ε1-[(4S)-4-carboxy-4-(19-carboxynonadecanoylamino)butanoyl]-[Arg17,Pro21,Pro27,Glu35]-h-amylin] | 34.5 | 41.3
2 | K([γGlu-γGlu-C20 diacid])CNTATCATQRLADFLRHSSPNFGAPLSSTNVGSDTY-NH2 (disulfide 2-7; N-terminus assumed; SMILES CC(C)C[C@H](NC(=O)[C@H](CCCNC(=N)N)NC(=O)[C@H](CCC(N)=O)NC(=O)[C@@H](NC(=O)[C@H](C)NC(=O)[C@@H]1CSSC[C@H](NC(=O)[C@@H](N)CCCCNC(=O)CC[C@H](NC(=O)CC[C@H](NC(=O)CCCCCCCCCCCCCCCCCCC(=O)O)C(=O)O)C(=O)O)C(=O)N[C@@H](CC(N)=O)C(=O)N[C@@H]([C@@H](C)O)C(=O)N[C@@H](C)C(=O)N[C@@H]([C@@H](C)O)C(=O)N1)[C@@H](C)O)C(=O)N[C@@H](C)C(=O)N[C@@H](CC(=O)O)C(=O)N[C@@H](Cc1ccccc1)C(=O)N[C@@H](CC(C)C)C(=O)N[C@@H](CCCNC(=N)N)C(=O)N[C@@H](Cc1c[nH]cn1)C(=O)N[C@@H](CO)C(=O)N[C@@H](CO)C(=O)N1CCC[C@H]1C(=O)N[C@@H](CC(N)=O)C(=O)N[C@@H](Cc1ccccc1)C(=O)NCC(=O)N[C@@H](C)C(=O)N1CCC[C@H]1C(=O)N[C@@H](CC(C)C)C(=O)N[C@@H](CO)C(=O)N[C@@H](CO)C(=O)N[C@H](C(=O)N[C@@H](CC(N)=O)C(=O)N[C@H](C(=O)NCC(=O)N[C@@H](CO)C(=O)N[C@@H](CC(=O)O)C(=O)N[C@H](C(=O)N[C@@H](Cc1ccc(O)cc1)C(N)=O)[C@@H](C)O)C(C)C)[C@@H](C)O, Synthetic analogue; also called compound 1) | 32.5 | 27.6
3 | K([γGlu-C20 diacid])CNTATCATQRLANFLRHSSPNFGAIPSSTNVGSKTY-NH2 (disulfide 2-7; N-terminus assumed; SMILES CC[C@H](C)[C@H](NC(=O)[C@H](C)NC(=O)CNC(=O)[C@H](Cc1ccccc1)NC(=O)[C@H](CC(N)=O)NC(=O)[C@@H]1CCCN1C(=O)[C@H](CO)NC(=O)[C@H](CO)NC(=O)[C@H](Cc1c[nH]cn1)NC(=O)[C@H](CCCNC(=N)N)NC(=O)[C@H](CC(C)C)NC(=O)[C@H](Cc1ccccc1)NC(=O)[C@H](CC(N)=O)NC(=O)[C@H](C)NC(=O)[C@H](CC(C)C)NC(=O)[C@H](CCCNC(=N)N)NC(=O)[C@H](CCC(N)=O)NC(=O)[C@@H](NC(=O)[C@H](C)NC(=O)[C@@H]1CSSC[C@H](NC(=O)[C@@H](N)CCCCNC(=O)CC[C@H](NC(=O)CCCCCCCCCCCCCCCCCCC(=O)O)C(=O)O)C(=O)N[C@@H](CC(N)=O)C(=O)N[C@@H]([C@@H](C)O)C(=O)N[C@@H](C)C(=O)N[C@@H]([C@@H](C)O)C(=O)N1)[C@@H](C)O)C(=O)N1CCC[C@H]1C(=O)N[C@@H](CO)C(=O)N[C@@H](CO)C(=O)N[C@H](C(=O)N[C@@H](CC(N)=O)C(=O)N[C@H](C(=O)NCC(=O)N[C@@H](CO)C(=O)N[C@@H](CCCCN)C(=O)N[C@H](C(=O)N[C@@H](Cc1ccc(O)cc1)C(N)=O)[C@@H](C)O)C(C)C)[C@@H](C)O, Synthetic analogue; also called compound 35) [N^ε1-[(4S)-4-carboxy-4-(19-carboxynonadecanoylamino)butanoyl]-[Arg17,Pro21,Pro27,Lys35]-h-amylin] | 48.8 | 50.3
4 | K([γGlu-γGlu-C20 diacid])CNTATCATQRLADFLRHSSNPFGAPLSSTNVGSDTY-NH2 (disulfide 2-7; N-terminus assumed; SMILES CC(C)C[C@H](NC(=O)[C@H](CCCNC(=N)N)NC(=O)[C@H](CCC(N)=O)NC(=O)[C@@H](NC(=O)[C@H](C)NC(=O)[C@@H]1CSSC[C@H](NC(=O)[C@@H](N)CCCCNC(=O)CC[C@H](NC(=O)CC[C@H](NC(=O)CCCCCCCCCCCCCCCCCCC(=O)O)C(=O)O)C(=O)O)C(=O)N[C@@H](CC(N)=O)C(=O)N[C@@H]([C@@H](C)O)C(=O)N[C@@H](C)C(=O)N[C@@H]([C@@H](C)O)C(=O)N1)[C@@H](C)O)C(=O)N[C@@H](C)C(=O)N[C@@H](CC(=O)O)C(=O)N[C@@H](Cc1ccccc1)C(=O)N[C@@H](CC(C)C)C(=O)N[C@@H](CCCNC(=N)N)C(=O)N[C@@H](Cc1c[nH]cn1)C(=O)N[C@@H](CO)C(=O)N[C@@H](CO)C(=O)N[C@@H](CC(N)=O)C(=O)N1CCC[C@H]1C(=O)N[C@@H](Cc1ccccc1)C(=O)NCC(=O)N[C@@H](C)C(=O)N1CCC[C@H]1C(=O)N[C@@H](CC(C)C)C(=O)N[C@@H](CO)C(=O)N[C@@H](CO)C(=O)N[C@H](C(=O)N[C@@H](CC(N)=O)C(=O)N[C@H](C(=O)NCC(=O)N[C@@H](CO)C(=O)N[C@@H](CC(=O)O)C(=O)N[C@H](C(=O)N[C@@H](Cc1ccc(O)cc1)C(N)=O)[C@@H](C)O)C(C)C)[C@@H](C)O, Synthetic analogue; also called compound 3) | 19.5 | 17.3
5 | {C20 diacid-γGlu}-KCNTATCATQRLAEFLRHSSPNFGAIPSSTNVGKNTY-NH2 (disulfide 2-7; SMILES CC[C@H](C)[C@H](NC(=O)[C@H](C)NC(=O)CNC(=O)[C@H](Cc1ccccc1)NC(=O)[C@H](CC(N)=O)NC(=O)[C@@H]1CCCN1C(=O)[C@H](CO)NC(=O)[C@H](CO)NC(=O)[C@H](Cc1c[nH]cn1)NC(=O)[C@H](CCCNC(=N)N)NC(=O)[C@H](CC(C)C)NC(=O)[C@H](Cc1ccccc1)NC(=O)[C@H](CCC(=O)O)NC(=O)[C@H](C)NC(=O)[C@H](CC(C)C)NC(=O)[C@H](CCCNC(=N)N)NC(=O)[C@H](CCC(N)=O)NC(=O)[C@@H](NC(=O)[C@H](C)NC(=O)[C@@H]1CSSC[C@H](NC(=O)[C@H](CCCCN)NC(=O)CC[C@H](NC(=O)CCCCCCCCCCCCCCCCCCC(=O)O)C(=O)O)C(=O)N[C@@H](CC(N)=O)C(=O)N[C@@H]([C@@H](C)O)C(=O)N[C@@H](C)C(=O)N[C@@H]([C@@H](C)O)C(=O)N1)[C@@H](C)O)C(=O)N1CCC[C@H]1C(=O)N[C@@H](CO)C(=O)N[C@@H](CO)C(=O)N[C@H](C(=O)N[C@@H](CC(N)=O)C(=O)N[C@H](C(=O)NCC(=O)N[C@@H](CCCCN)C(=O)N[C@@H](CC(N)=O)C(=O)N[C@H](C(=O)N[C@@H](Cc1ccc(O)cc1)C(N)=O)[C@@H](C)O)C(C)C)[C@@H](C)O, Synthetic analogue; also called compound 36) | 6.3 | 15.7
6 | {C20 diacid-γGlu}-KCNTATCATQRLAEFLRHSSPNFGPILPPTNVGSNTY-NH2 (disulfide 2-7; SMILES CC[C@H](C)[C@H](NC(=O)[C@@H]1CCCN1C(=O)CNC(=O)[C@H](Cc1ccccc1)NC(=O)[C@H](CC(N)=O)NC(=O)[C@@H]1CCCN1C(=O)[C@H](CO)NC(=O)[C@H](CO)NC(=O)[C@H](Cc1c[nH]cn1)NC(=O)[C@H](CCCNC(=N)N)NC(=O)[C@H](CC(C)C)NC(=O)[C@H](Cc1ccccc1)NC(=O)[C@H](CCC(=O)O)NC(=O)[C@H](C)NC(=O)[C@H](CC(C)C)NC(=O)[C@H](CCCNC(=N)N)NC(=O)[C@H](CCC(N)=O)NC(=O)[C@@H](NC(=O)[C@H](C)NC(=O)[C@@H]1CSSC[C@H](NC(=O)[C@H](CCCCN)NC(=O)CC[C@H](NC(=O)CCCCCCCCCCCCCCCCCCC(=O)O)C(=O)O)C(=O)N[C@@H](CC(N)=O)C(=O)N[C@@H]([C@@H](C)O)C(=O)N[C@@H](C)C(=O)N[C@@H]([C@@H](C)O)C(=O)N1)[C@@H](C)O)C(=O)N[C@@H](CC(C)C)C(=O)N1CCC[C@H]1C(=O)N1CCC[C@H]1C(=O)N[C@H](C(=O)N[C@@H](CC(N)=O)C(=O)N[C@H](C(=O)NCC(=O)N[C@@H](CO)C(=O)N[C@@H](CC(N)=O)C(=O)N[C@H](C(=O)N[C@@H](Cc1ccc(O)cc1)C(N)=O)[C@@H](C)O)C(C)C)[C@@H](C)O, Synthetic analogue; also called compound 6) | 19.9 | 20
